From US20250270319A1 (Alector, published 2025)
Substitutions are numbered along the chain they refer to. Like-named read-outs stand apart in the source and are kept apart here.

B1: anti-CD33 antibody 6C7H5 (antibody, V domains shown)
VH: EVQLVESGGGLVQPGGSLRLSCAGSGFTFSNYCMNWVRQAPGKGLEWVAEIRLKSNNYVTNYAASVKGRFTISRDDSKNSVYLQMNSLKTEDTGVYYCTRDGYYVPFAYWGQGTLVTVSS
VL: QLVLTQSPSASASLGASVKLTCTLSSQHSTYTIEWYQQQPEKGPRYLMELKKDGSHSTGDGIPDRFSGSSSGAERYLTISSLQSEDEADYYCGVGDTIKEQFVYVFGGGTKLTVL
notes: Humanized 6C7; VH/VL only; also called parental humanized antibody
B2: anti-CD33 antibody 6C7H3 (antibody, V domains shown)
VH: B1 VH with G24A, A49G, V81L, G94A, T99A
VL: B1 VL
notes: Humanized 6C7; VH/VL only
B3: anti-CD33 antibody 6C7H8 (antibody, IgG1, V domains shown)
VH: B1 VH with D101A
VL: B1 VL with D53E
notes: VH/VL only; also called 6C7H8 IgG1; parental antibody
B4: anti-CD33 antibody 6C7H27 (antibody, V domains shown)
VH: B1 VH with N31D, C33T, D101A
VL: B1 VL with D53E
notes: VH/VL only
B5: anti-CD33 antibody 6C7H7 (antibody, V domains shown)
VH: B1 VH with V81L, G94A
VL: B1 VL with V18A, L47V, L82I, Y91I, L112V
notes: Humanized 6C7; VH/VL only
B6: anti-CD33 antibody 6C7H19 (antibody, V domains shown)
VH: B1 VH with C33R, D101A
VL: B1 VL with D53E
notes: VH/VL only
B7: anti-CD33 antibody 6C7H30 (antibody, V domains shown)
VH: B1 VH with C33W, D101A
VL: B1 VL with D53E
notes: VH/VL only
B8: anti-CD33 antibody 6C7H2 (antibody, V domains shown)
VH: B1 VH
VL: B1 VL with Y36H, E49K
notes: Humanized 6C7; VH/VL only
B9: anti-CD33 antibody 6C7H4 (antibody, V domains shown)
VH: B1 VH with V81L, G94A
VL: B1 VL
notes: Humanized 6C7; VH/VL only
B10: anti-CD33 antibody 6C7H1 (antibody, V domains shown)
VH: B1 VH with G24A, A49G, V81L, G94A, T99A
VL: B1 VL with Y36H, E49K
notes: Humanized 6C7; VH/VL only
B11: anti-CD33 antibody 6C7H54 (antibody, IgG1, V domains shown)
VH: B1 VH with C33E, D101A
VL: B1 VL with V3M, E41G, D53E, D96H
notes: VH/VL only; also called 6C7H54 IgG1; 6C754
B12: anti-CD33 antibody 6C7H22 (antibody, V domains shown)
VH: B1 VH with C33T, D101A
VL: B1 VL with D53E
notes: VH/VL only
B13: anti-CD33 antibody 6C7H11 (antibody, V domains shown)
VH: B1 VH with G24A, N31E, C33A, A49G, D101A
VL: B1 VL with D53G
notes: VH/VL only
B14: anti-CD33 antibody 6C7H13 (antibody, V domains shown)
VH: B1 VH with C33F, D101A
VL: B1 VL with D53E
notes: VH/VL only
B15: anti-CD33 antibody 6C7H6 (antibody, V domains shown)
VH: B1 VH with G24A, A49G, V81L, G94A, T99A
VL: B1 VL with V18A, L47V, L82I, Y91I, L112V
notes: Humanized 6C7; VH/VL only

Assays:
[1] = molecular target: T1, human CD33 on primary human dendritic cells (human, UniProt P20138 18-364); assay: cell-based or functional assay
T1 sequence (P20138 18-364): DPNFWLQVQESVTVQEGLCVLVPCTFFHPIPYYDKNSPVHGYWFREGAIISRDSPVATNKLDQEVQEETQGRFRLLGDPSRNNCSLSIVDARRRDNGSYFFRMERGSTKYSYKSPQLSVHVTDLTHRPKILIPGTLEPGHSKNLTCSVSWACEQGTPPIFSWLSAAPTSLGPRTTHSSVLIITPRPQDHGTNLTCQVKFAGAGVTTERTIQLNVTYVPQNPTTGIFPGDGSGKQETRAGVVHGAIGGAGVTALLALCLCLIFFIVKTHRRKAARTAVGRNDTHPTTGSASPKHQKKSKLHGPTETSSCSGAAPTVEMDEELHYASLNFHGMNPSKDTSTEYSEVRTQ

[2] = molecular target: T1, human CD33 on primary human dendritic …; assay: cell-based or functional assay; remark: listed apart in the source
[3] = molecular target: T1, human CD33 on primary human dendritic …; assay: cell-based or functional assay; remark: listed apart in the source
[4] = molecular target: T2, recombinant human CD33 protein (Sino Biologicals) (human, UniProt P20138 18-259); assay: ELISA, plate coated with recombinant CD33
T2 construct: Bought protein; also called recombinant CD33
T2 sequence (P20138 18-259 limits assumed): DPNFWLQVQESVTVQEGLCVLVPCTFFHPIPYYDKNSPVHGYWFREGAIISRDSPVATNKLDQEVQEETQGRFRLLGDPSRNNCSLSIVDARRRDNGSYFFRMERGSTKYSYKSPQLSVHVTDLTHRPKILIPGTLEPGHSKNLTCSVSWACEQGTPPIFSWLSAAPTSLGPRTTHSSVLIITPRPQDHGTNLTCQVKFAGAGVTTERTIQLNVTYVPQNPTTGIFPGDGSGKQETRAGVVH

[5] = molecular target: T3, recombinant cynomolgus CD33 protein (NovoProtein) (cynomolgus); assay: ELISA, plate coated with recombinant CD33
T3 construct: Bought protein; also called cyno CD33
T3 sequence (chain, as listed by the source limits assumed): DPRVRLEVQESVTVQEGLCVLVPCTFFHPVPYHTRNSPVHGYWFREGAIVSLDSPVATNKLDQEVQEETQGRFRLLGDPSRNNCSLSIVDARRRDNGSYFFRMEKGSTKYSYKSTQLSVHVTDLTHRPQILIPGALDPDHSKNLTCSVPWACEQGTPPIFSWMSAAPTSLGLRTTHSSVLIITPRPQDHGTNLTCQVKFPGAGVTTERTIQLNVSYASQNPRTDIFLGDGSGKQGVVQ

[6] = molecular target: T2, recombinant human CD33 protein (Sino …); assay: BLI (ForteBio), antibody on anti-human Fc sensor, CD33 10 nM
Method: (§1) Affinity parameters of the antibody variants for human CD33 were measured by BioLayer Interferometry in a ForteBio assay according to standard techniques (Estep et al. (2013) MAbs 5(2): 270-8) and were compared to those of the parental antibody (antibody 6C7H8) and the parental humanized antibody (antibody 6C71H5). Briefly, the antibodies were captured on anti-human Fc Biosensors (Pall ForteBio). Recombinant human CD33 (10 nM, Sino Biologicals) was then bound to the captured anti-CD33 surface (200 s association time, 1200 s dissociation time). Local fitting was used to extract association and dissociation rate constants (kₐ and kd, respectively) for each antibody. Apparent affinity constants (KD) were calculated from the ratio kd/kₐ.

[7] = molecular target: T1, human CD33 on primary human dendritic …; assay: flow cytometry on primary human dendritic cells, antibody dilutions, fluorescent anti-human IgG secondary
Method: (§2) The 7 humanized anti-CD33 antibodies of 6C7 were evaluated for binding to primary dendritic cells by flow cytometry, and binding was compared to that of an anti-CD33 6C7 chimeric antibody that contained the variable heavy chain sequence and the variable light chain sequence of anti-CD33 antibody 6C7. Monocytes were isolated from blood from healthy human donors using the RosetteSep™ monocyte isolation antibody cocktail (StemCell Technologies). The isolated monocytes were differentiated into dendritic cells with 100 ng/mL GM-CSF and 100 ng/mL IL-4 (Peprotech). Dendritic cells were incubated with dilutions of the anti-CD33 antibodies for 30 minutes on ice in the dark, followed by a 30-minute incubation with a fluorescently-conjugated anti-human IgG secondary antibody. Cells were washed twice in FACS buffer (PBS+2% FBS, 2 mM EDTA), and flow cytometry was performed on a BD FACS Canto. Data were analyzed using FlowJo software (Ashland, OR).

[8] = molecular target: T1, human CD33 on primary human dendritic …; assay: cell-based or functional assay; remark: listed apart in the source
[9] = molecular target: T1, human CD33 on primary human dendritic …; assay: flow cytometry, primary human dendritic cells, 2 ug/mL
[10] = molecular target: T3, recombinant cynomolgus CD33 protein …; assay: BLI (ForteBio)
Method: as §1
(§3) The affinity parameters of anti-CD33 antibody 6C7H54 for human CD33 and cynomolgus CD33 were measured by BioLayer Interferometry in a ForteBio assay, according to the method described above.

[11] = molecular target: T2, recombinant human CD33 protein (Sino …); assay: BLI (ForteBio), antibody on anti-human Fc sensor
Method: as §1, §3

[12] = molecular target: T3, recombinant cynomolgus CD33 protein …; assay: BLI (ForteBio), antibody on anti-human Fc sensor
Method: as §1, §3

[13] = molecular target: T2, recombinant human CD33 protein (Sino …); assay: ELISA on recombinant CD33, relative binding, antibody concentration not given
[14] = molecular target: T1, human CD33 on primary human dendritic …; assay: flow cytometry on primary human dendritic cells, antibody at 2 ug/mL, fluorescent anti-human IgG secondary
Method: as §2
The antibody variants were evaluated for binding to primary human dendritic cells, according to the method described in Example 1, at an antibody concentration of 2 μg/mL.

Binder | Receptor downregulation, (EC50) (pM) [2] | Kd [6] | koff [6] | kon [6] | binding result [7] | binding relative to the parental antibodies [9] | further results
B1 | 42.4 pM | 436 pM | 0.00012 s⁻¹ | 275000 M⁻¹ s⁻¹ |  |  | Receptor downregulation, (EC50) (pM) [1]: 42.4 pM; Maximal reduction in CD33 (% remaining) [2]: 21 % remaining; Receptor downregulation, (EC50) (pM) [3]: 42.4 pM; EC50 [4]: 160 pM; EC50 [5]: 3840 pM; Relative maximal binding (cyno/human) [5]: 0.5; Relative potency (human/cyno) [5]: 0.04
B2 |  |  |  |  | binds |  | 
B3 | 77.9 pM | 722 pM | 0.000413 s⁻¹ | 572000 M⁻¹ s⁻¹ |  |  | Receptor downregulation, (EC50) (pM) [1]: 77.9 pM; Fold increase in potency compared to 6C7H5 [2]: 0.5 fold; Maximal reduction in CD33 (% remaining) [2]: 21.5 % remaining; Maximal downregulation (% CD33 remaining) [8]: 21.5 % CD33 remaining; Receptor downregulation, (pM, EC50) [8]: 77.9 pM; EC50 [4]: 210 pM; Relative maximal binding (cyno/human) [5]: 0.06
B4 | 1520 pM | 2730 pM | 0.00365 s⁻¹ | 1.34e+06 M⁻¹ s⁻¹ |  | < 60% | Fold increase in potency compared to 6C7H5 [2]: 0.03 fold
B5 |  |  |  |  | binds |  | 
B6 |  | 238 pM | 0.00114 s⁻¹ | 4.79e+06 M⁻¹ s⁻¹ |  | < 60% | 
B7 |  | 1270 pM | 0.0059 s⁻¹ | 4.65e+06 M⁻¹ s⁻¹ |  | < 60% | 
B8 |  |  |  |  | no binding (tested: about 2 ug/mL) |  | 
B9 |  |  |  |  | binds |  | 
B10 |  |  |  |  | no binding (tested: about 1.2 ug/mL) |  | 
B11 |  |  |  |  |  |  | fold difference of binding affinity, cynomolgus CD33 against human CD33 [10]: ≤ 3 fold; Fold increase in potency compared to 6C7H5 [3]: 1.2 fold; Receptor downregulation, (EC50) (pM) [3]: 30.2 pM; Maximal downregulation (% CD33 remaining) [8]: 26.1 % CD33 remaining; Receptor downregulation, (pM, EC50) [8]: 30.2 pM; EC50 [4]: 280 pM; EC50 [5]: 570 pM; Relative maximal binding (cyno/human) [5]: 0.73; Relative potency (human/cyno) [5]: 0.49; Kd [11]: 61 pM; koff [11]: 3.32e-05 s⁻¹; kon [11]: 545000 M⁻¹ s⁻¹; Kd [12]: 178 pM; koff [12]: 0.000105 s⁻¹; kon [12]: 589000 M⁻¹ s⁻¹
B12 | 1230 pM | 467 pM | 0.00113 s⁻¹ | 2.41e+06 M⁻¹ s⁻¹ |  | < 60% | Fold increase in potency compared to 6C7H5 [2]: 0.03 fold
B13 |  |  |  |  |  |  | binding result [13]: binds; binding result [14]: binds
B14 | 3640 pM | 3880 pM | 0.0031 s⁻¹ | 801000 M⁻¹ s⁻¹ |  | < 60% | Fold increase in potency compared to 6C7H5 [2]: 0.01 fold
B15 |  |  |  |  | binds |  | 
